From article PMC13544220, “Glycemic and bodyweight effects of GIPR coding variation reflect differences in surface expression and intrinsic functional impairment” (Science Advances, 2026)

Columns and labels:
Format in all cases: cell-based, human
[1] = test system: wild-type and variant SNAP-GIPR; experiment: Single-concentration GIP cAMP response by HTRF in INS-1 cells; conditions: Fig S3E, mean
Description: (§1) All variants were tested in parallel on each occasion to control for transfection efficiency differences between experiments.

[2] = test system: wild-type and variant SNAP-GIPR; experiment: cADDis cAMP imaging in AD293 cells, ensemble, expression-matched and per decile; conditions: Fig S3F, cADDis, mean;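 also: Ensemble cells as % of IBMX/FSK response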
Summary of the method: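 AD293 cells were transfected with SNAP-GIPR constructs and cotransduced with the cADDis Green Up cAMP sensor, then labeled after 24 h with 500 nM SNAP-Surface Alexa Fluor 647. Per-cell cADDis intensity was tracked at 37°C in KRBH with 6 mM glucose and 0.1% BSA.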

[3] = test system: wild-type and variant SNAP-GIPR; experiment: Surface SNAP-GIPR expression (SNAP-tag labelling) in INS-1 cells; conditions: Fig 4G; Mean
Summary of the method: (§2)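 Read-out: whole-cell fluorescence of surface-only SNAP label (Alexa Fluor 647, 500 nM, 10 min, RT), wide-field 20X, several FOVs per well. Flat-field corrected, phase-contrast masked, nontransfected-well signal subtracted; normalized to experiment mean or wild-type.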

[4] = test system: wild-type and variant SNAP-GIPR; experiment: Surface SNAP-GIPR expression (SNAP-tag labelling) in AD293 cells; conditions: for AD293 Surface: Fig S3E, mean; for Surface SNAP-GIPR expression: sheet Fig 1C;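 as to all read-outs here: scaled to the experimental average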
Summary of the method: as §2

[5] = test system: wild-type and variant SNAP-GIPR; experiment: Constitutive and agonist-mediated internalization, reversible SNAP-tag labelling, INS-1 cells; design: key to Internalisation, GIP-only / Internalisation, Vehicle / Internalisation, +GIP: % internalization: residual fluorescence after Mesna vs pre-Mesna; conditions: Mean; for +GIP internalisation (100 nM) / GIP-specific internalisation (100 nM) / Constitutive internalisation (100 nM): Fig 4G; for +GIP internalisation (100 nM) / GIP-specific internalisation (100 nM): GIP 100 nM; for Internalisation, +GIP / Internalisation, GIP-only / Internalisation, Vehicle: Fig S4C, INS-1
Summary of the method: (§3)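 Percentage internalization calculated as specific SNAP fluorescence remaining after 10 min Mesna exposure, relative to pre-Mesna signal, imaged in TNE buffer (pH 8.6).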

[6] = test system: wild-type and variant SNAP-GIPR; experiment: Single-concentration GIP cAMP response by HTRF in AD293 cells; conditions: Fig S3F, HTRF, mean;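 also: ratio to experiment-wide average response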
Description: as §1

[7] = test system: wild-type and variant SNAP-GIPR; experiment: Constitutive and agonist-mediated internalization, reversible SNAP-tag labelling, AD293 cells; design: key to Internalisation, Vehicle / Internalisation, +GIP / Internalisation, GIP-only: % internalization: residual fluorescence after Mesna vs pre-Mesna; Surface expression: unit not given here; conditions: Mean; for +GIP internalisation (100 nM) / GIP-specific internalisation (100 nM) / Constitutive internalisation (100 nM) / Surface expression: Fig 4E; for +GIP internalisation (100 nM) / GIP-specific internalisation (100 nM): GIP 100 nM; for Internalisation, +GIP / Internalisation, GIP-only / Internalisation, Vehicle: Fig S4C, AD293
Summary of the method: as §3

[8] = column repeated, paired with cAMP 100 nM

B1: I403V (protein, UniProt P48546 22-466, looked up, variant I403V)
Gastric inhibitory …: RAETGSKGQTAGELYQRWERYRRECQETLAAAEPPSGLACNGSFDMYVCWDYAAPNATARASCPWYLPWHHHVAAGFVLRQCGSDGQWGLWRDHTQCENPEKNEAFLDQRLILERLQVMYTVGYSLSLATLLLALLILSLFRRLHCTRNYIHINLFTSFMLRAAAILSRDRLLPRPGPYLGDQALALWNQALAACRTAQIVTQYCVGANYTWLLVEGVYLHSLLVLVGGSEEGHFRYYLLLGWGAPALFVIPWVIVRYLYENTQCWERNEVKAIWWIIRTPILMTILINFLIFIRILGILLSKLRTRQMRCRDYRLRLARSTLTLVPLLGVHEVVFAPVTEEQARGALRFAKLGFEIFLSSFQGFLVSVLYCFINKEVQSEVRRGWHHCRLRRSLGEEQRQLPERAFRALPSGSGPGEVPTSRGLSSGTLPGPGNEASRELESYC
INS-1 cAMP (100 nM) [1]: 1.36
AD293 100 pM cADDis [2]: 32.3253
AD293 100 nM cADDis [2]: 38.62
Surface expression [3]: 1.09
AD293 Surface [4, 8]: 1.077
AD293 Surface ([4]; paired with cAMP 100 pM): 1.077
Surface SNAP-GIPR expression ([4]; replicate 1): 1.081
Surface SNAP-GIPR expression ([4]; replicate 2): 1.363
Surface SNAP-GIPR expression ([4]; replicate 3): 0.2202
Surface SNAP-GIPR expression ([4]; replicate 4): 1.549
Surface SNAP-GIPR expression ([4]; replicate 5): 1.258
Surface SNAP-GIPR expression ([4]; replicate 6): 1.264
Surface SNAP-GIPR expression ([4]; replicate 7): 0.985
Surface SNAP-GIPR expression ([4]; replicate 8): 0.9444
Surface SNAP-GIPR expression ([4]; replicate 9): 1.045
Surface SNAP-GIPR expression ([4]; replicate 10): 1.237
Surface SNAP-GIPR expression ([4]; replicate 11): 0.9384
Surface SNAP-GIPR expression ([4]; replicate 12): 0.958
Surface SNAP-GIPR expression ([4]; replicate 13): 1.387
Surface SNAP-GIPR expression ([4]; replicate 14): 1.061
Surface SNAP-GIPR expression ([4]; replicate 15): 1.05
Surface SNAP-GIPR expression ([4]; replicate 16): 0.9753
Surface SNAP-GIPR expression ([4]; replicate 17): 1.072
Surface SNAP-GIPR expression ([4]; replicate 18): 0.9656
Surface SNAP-GIPR expression ([4]; replicate 19): 0.8084
Surface SNAP-GIPR expression ([4]; replicate 20): 1.091
Surface SNAP-GIPR expression ([4]; replicate 21): 0.9955
Surface SNAP-GIPR expression ([4]; replicate 22): 1.089
Surface SNAP-GIPR expression ([4]; replicate 23): 1.06
Surface SNAP-GIPR expression ([4]; replicate 24): 1.048
Surface SNAP-GIPR expression ([4]; replicate 25): 0.9764
Surface SNAP-GIPR expression ([4]; replicate 26): 0.8875
Surface SNAP-GIPR expression ([4]; replicate 27): 0.9058
Surface SNAP-GIPR expression ([4]; replicate 28): 1.123
Surface SNAP-GIPR expression ([4]; replicate 29): 1.103
Surface SNAP-GIPR expression ([4]; replicate 30): 1.39
Surface SNAP-GIPR expression ([4]; replicate 31): 1.166
Surface SNAP-GIPR expression ([4]; replicate 32): 1.223
Surface SNAP-GIPR expression ([4]; replicate 33): 1.12
Surface SNAP-GIPR expression ([4]; replicate 34): 1.156
Surface SNAP-GIPR expression ([4]; replicate 35): 1.076
Surface SNAP-GIPR expression ([4]; replicate 36): 1.273
Surface SNAP-GIPR expression ([4]; replicate 37): 1.139
Surface SNAP-GIPR expression ([4]; replicate 38): 1.049
Surface SNAP-GIPR expression ([4]; replicate 39): 1.042
Surface SNAP-GIPR expression ([4]; replicate 40): 1.006
Surface SNAP-GIPR expression ([4]; replicate 41): 1.094
+GIP internalisation (100 nM) [5]: 0.5388
GIP-specific internalisation (100 nM) [5]: 0.1314
Constitutive internalisation (100 nM) [5]: 0.4074
Internalisation, +GIP [5]: 49.7833
Internalisation, GIP-only [5]: 12.345
Internalisation, Vehicle [5]: 37.4383
AD293 100 pM HTRF [6]: 1.267
AD293 100 nM HTRF [6]: 1.595
+GIP internalisation (100 nM) [7]: 0.6419
GIP-specific internalisation (100 nM) [7]: 0.176
Constitutive internalisation (100 nM) [7]: 0.4659
Surface expression [7]: 1.133
Internalisation, +GIP [7]: 57.0289
Internalisation, GIP-only [7]: 15.5744
Internalisation, Vehicle [7]: 41.4545

B2: R336P (protein, UniProt P48546 22-466, looked up, variant R336P)
Gastric inhibitory …: RAETGSKGQTAGELYQRWERYRRECQETLAAAEPPSGLACNGSFDMYVCWDYAAPNATARASCPWYLPWHHHVAAGFVLRQCGSDGQWGLWRDHTQCENPEKNEAFLDQRLILERLQVMYTVGYSLSLATLLLALLILSLFRRLHCTRNYIHINLFTSFMLRAAAILSRDRLLPRPGPYLGDQALALWNQALAACRTAQIVTQYCVGANYTWLLVEGVYLHSLLVLVGGSEEGHFRYYLLLGWGAPALFVIPWVIVRYLYENTQCWERNEVKAIWWIIRTPILMTILINFLIFIRILGILLSKLRTRQMRCRDYPLRLARSTLTLVPLLGVHEVVFAPVTEEQARGALRFAKLGFEIFLSSFQGFLVSVLYCFINKEVQSEIRRGWHHCRLRRSLGEEQRQLPERAFRALPSGSGPGEVPTSRGLSSGTLPGPGNEASRELESYC
INS-1 cAMP (100 nM) [1]: 0.7986
AD293 100 pM cADDis [2]: 30.0491
AD293 100 nM cADDis [2]: 33.63
Surface expression [3]: 0.9442
AD293 Surface [4, 8]: 0.9922
AD293 Surface ([4]; paired with cAMP 100 pM): 0.9922
Surface SNAP-GIPR expression ([4]; replicate 1): 1.065
Surface SNAP-GIPR expression ([4]; replicate 2): 0.5013
Surface SNAP-GIPR expression ([4]; replicate 3): 1.132
Surface SNAP-GIPR expression ([4]; replicate 4): 0.7089
Surface SNAP-GIPR expression ([4]; replicate 5): 1.372
Surface SNAP-GIPR expression ([4]; replicate 6): 0.9533
Surface SNAP-GIPR expression ([4]; replicate 7): 1.085
Surface SNAP-GIPR expression ([4]; replicate 8): 0.9069
Surface SNAP-GIPR expression ([4]; replicate 9): 0.9059
Surface SNAP-GIPR expression ([4]; replicate 10): 0.7148
Surface SNAP-GIPR expression ([4]; replicate 11): 1.055
Surface SNAP-GIPR expression ([4]; replicate 12): 1.013
Surface SNAP-GIPR expression ([4]; replicate 13): 0.7103
Surface SNAP-GIPR expression ([4]; replicate 14): 1.142
Surface SNAP-GIPR expression ([4]; replicate 15): 0.8074
Surface SNAP-GIPR expression ([4]; replicate 16): 0.9322
Surface SNAP-GIPR expression ([4]; replicate 17): 0.8667
Surface SNAP-GIPR expression ([4]; replicate 18): 1.004
Surface SNAP-GIPR expression ([4]; replicate 19): 0.9824
Surface SNAP-GIPR expression ([4]; replicate 20): 1.058
Surface SNAP-GIPR expression ([4]; replicate 21): 0.9727
Surface SNAP-GIPR expression ([4]; replicate 22): 0.8965
Surface SNAP-GIPR expression ([4]; replicate 23): 0.778
Surface SNAP-GIPR expression ([4]; replicate 24): 0.7544
Surface SNAP-GIPR expression ([4]; replicate 25): 1.062
Surface SNAP-GIPR expression ([4]; replicate 26): 1.025
Surface SNAP-GIPR expression ([4]; replicate 27): 0.9727
Surface SNAP-GIPR expression ([4]; replicate 28): 0.7869
Surface SNAP-GIPR expression ([4]; replicate 29): 1.148
Surface SNAP-GIPR expression ([4]; replicate 30): 1.341
Surface SNAP-GIPR expression ([4]; replicate 31): 1.222
Surface SNAP-GIPR expression ([4]; replicate 32): 1.042
Surface SNAP-GIPR expression ([4]; replicate 33): 1.006
Surface SNAP-GIPR expression ([4]; replicate 34): 0.7344
Surface SNAP-GIPR expression ([4]; replicate 35): 1.077
Surface SNAP-GIPR expression ([4]; replicate 36): 1.167
Surface SNAP-GIPR expression ([4]; replicate 37): 1.212
Surface SNAP-GIPR expression ([4]; replicate 38): 1.22
Surface SNAP-GIPR expression ([4]; replicate 39): 1.259
Surface SNAP-GIPR expression ([4]; replicate 40): 1.054
Surface SNAP-GIPR expression ([4]; replicate 41): 1.032
+GIP internalisation (100 nM) [5]: 0.578
GIP-specific internalisation (100 nM) [5]: 0.1817
Constitutive internalisation (100 nM) [5]: 0.3963
Internalisation, +GIP [5]: 55.395
Internalisation, GIP-only [5]: 16.7483
Internalisation, Vehicle [5]: 38.6467
AD293 100 pM HTRF [6]: 1.285
AD293 100 nM HTRF [6]: 1.143
+GIP internalisation (100 nM) [7]: 0.6438
GIP-specific internalisation (100 nM) [7]: 0.1531
Constitutive internalisation (100 nM) [7]: 0.4907
Surface expression [7]: 1.092
Internalisation, +GIP [7]: 55.5681
Internalisation, GIP-only [7]: 13.0056
Internalisation, Vehicle [7]: 42.5625
